Test results: patent publication US20250340857A1 (SEISMIC THERAPEUTIC, published 2025)
Changes are numbered by the printed parent chain.

B1: FP16 (Fc fusion)
chain: DKTHTCPPCPAPEAAGAPSVFLFPPKPKDTLMISRTPEVTCVVVDVSHEDPEVKFNWYVDGVEVHNAKTKPREEQQNSTYRVVSVLTVLHQDWLNGKEYKCKVSNKALKAPIEKTISKAKGQPREPQVYTLPPSRDELTKNQVSLTCLVKGFYPSDIAVEWESNGQPENNYKTTPPVLDSDGSFFLYSKLTVDKSRWQQGNVFSCSVMHEALHNHYTQKSLSLSPGGGGSGGGGSGGGGSTALGRRKAEDRIKETLWADGVKIDEKDFEHIKSSHEDYFAVEYGKGSGYYDVNKKMDSEDTALCVGAVVTNMFHWWVDQNRENIEKFKKQDPENNGVMKFNGVKEATVDELNHFYKEYQSNKYADQSRFFDLIKKHFGNKALNPEELFELYFNGFYYGSSHRYIEDNKPAQNNLFSKVLENNKLLNPERSYGIDGFSNNVINALKSHKVLGLVHTTPLRYRHIISMWGADIDQDGKVKAIYVTDSDDREITFNDNSKRRIGMIRYDVLVDDNGNIRFTGKGATHKEEGAIYAGLYSLSRGDEVWEDYFKKYPEVQENL
B2: FP13 (Fc fusion)
chain: DKTHTCPPCPAPEAAGAPSVFLFPPKPKDTLMISRTPEVTCVVVDVSHEDPEVKFNWYVDGVEVHNAKTKPREEQQNSTYRVVSVLTVLHQDWLNGKEYKCKVSNKALKAPIEKTISKAKGQPREPQVYTLPPSRDELTKNQVSLTCLVKGFYPSDIAVEWESNGQPENNYKTTPPVLDSDGSFFLYSKLTVDKSRWQQGNVFSCSVMHEALHNHYTQKSLSLSPGGGGSGGGGSGGGGSTALGRRKAEDRIKETLWADGVKIDEKDFEHIKSSHEDYFAVEYGKGSGYYDVNKKMDSEDSALCVGAVVTNMFHWWVDQNRENIEKFKKQDPENNGVMKFEGVKEATVDELNHFYRDNRDNYADQSRFFDLIKKHFGNKALNPEELFELYFNGFYYGSSHRYIEDNEPAQNNLFSKVLENNKLLNPERSYGIDGFSNNVINALKSHKVLGLVHTTPLRYRHIISMWGADIDQDGKVKAIYVTDSDDREITFNDNSKRRIGMIRYDVLVDDNGNIRFTGKGATHKEEGAIYAGLYSLSRGDEVWEDYFKKYPEVQENL
B3: FP19 (Fc fusion)
chain: B2 chain with H453Y
B4: FP184 (Fc fusion)
chain 1: DKTHTCPPCPAPEAAGAPSVFLFPPKPKDTLMISRTPEVTCVVVDVSHEDPEVKFNWYVDGVEVHNAKTKPREEQQNSTYRVVSVLTVLHQDWLNGKEYKCKVSNKALKAPIEKTISKAKGQPREPQVYTLPPSRDELTKNQVSLWCLVKGFYPSDIAVEWESNGQPENNYKTTPPVLDSDGSFFLYSKLTVDKSRWQQGNVFSCSVMHEALHNHYTQKSLSLSPGEAAAKEAAAKEAAAKTALGRRKAEDRIKETLWADGVKIDEKDFEHIKSSHEDYFAVEYGKGSGYYDVNKKMDSEDSALCVGAVVTNMFHWWVDQNRENIEKFKKQDPENNGVMKFEGVKEATVDELNEFYRDNRDNYADQSRFFDLIKKHFGNKALNPEELFELYFNGFYYGSSHRYIEDNEPAQNNLFSKVLENNKLLNPERSYGIDGFSNNVINALKSHKVLGLVYTTPLRYRHIISMWGADIDQDGKVKAIYVTDSDDREITFNDNSKRRIGMIRYDVLVDDNGNIRFTGKGATHKEEGAIYAGLYSLSRGDEVWEDYFKKYPEVQENL
chain 2: DKTHTCPPCPAPEAAGAPSVFLFPPKPKDTLMISRTPEVTCVVVDVSHEDPEVKFNWYVDGVEVHNAKTKPREEQQNSTYRVVSVLTVLHQDWLNGKEYKCKVSNKALKAPIEKTISKAKGQPREPQVYTLPPSRDELTKNQVSLSCAVKGFYPSDIAVEWESNGQPENNYKTTPPVLDSDGSFFLVSKLTVDKSRWQQGNVFSCSVMHEALHNHYTQKSLSLSPG
B5: FP191 (Fc fusion)
chain 1: DKTHTCPPCPAPEAAGAPSVFLFPPKPKDTLMISRTPEVTCVVVDVSHEDPEVKFNWYVDGVEVHNAKTKPREEQQNSTYRVVSVLTVLHQDWLNGKEYKCKVSNKALKAPIEKTISKAKGQPREPQVYTLPPSRDELTKNQVSLWCLVKGFYPSDIAVEWESNGQPENNYKTTPPVLDSDGSFFLYSKLTVDKSRWQQGNVFSCSVMHEALHNHYTQKSLSLSPGAPAPAPAPAPAPAPTALGRRKAEDRIKETLWADGVKIDEKDFEHIKSSHEDYFAVEYGKGSGYYDVNKKMDSEDSALCVGAVVTNMFHWWVDQNRENIEKFKKQDPENNGVMKFEGVKEATVDELNEFYRDNRDNYADQSRFFDLIKKHFGNKALNPEELFELYFNGFYYGSSHRYIEDNEPAQNNLFSKVLENNKLLNPERSYGIDGFSNNVINALKSHKVLGLVYTTPLRYRHIISMWGADIDQDGKVKAIYVTDSDDREITFNDNSKRRIGMIRYDVLVDDNGNIRFTGKGATHKEEGAIYAGLYSLSRGDEVWEDYFKKYPEVQENL
chain 2: B4 chain 2

Legend:
IgG1 = experiment: cell-based or functional assay
Human IgE antibody = Human IgE antibody (human); experiment: cell-based or functional assay

| Binder | EC50 CE-SDS IgG1 (IgG1) [nM] | EC50 CE-SDS IgE (Human IgE antibody) [nM] | EC50 MSD IgE (Human IgE antibody) [nM] |
| --- | --- | --- | --- |
| B1 | 8720 | 47 | – |
| B2 | 21300 | 31.9 | – |
| B3 | 7240 | 21.8 | 1.2 |
| B4 | – | – | 0.475 |
| B5 | – | 1.51 | 0.555 |
